Patent US11370847B2, “Single domain antibodies directed against intracellular antigens” (Singh Biotechnology, LLC, priority 2014, dated 2022)
Values joined by “and” are separate entries in the source; they are usually repeats but may differ in a detail not shown here. Equal entries are not always repeated.

What was measured:
[1] = test system: rabbit anti-llama biotinylated antibody or his-probe (H-3) biotin labeled antibody; experiment: ELISA of secondary antibody binding to coated sdAbs; settings: Experiment 3, sdAb coated at 1 μg/mL, stored 1:100 dilution
Experimental: Two assays (Experiment 2 and 3) were performed to assess the binding of the secondary antibody to the sdAbs. A similar ELISA method was utilized except the sdAbs were directly coated onto the assay plate at a concentration of 1 μg/mL. Plates were incubated overnight at 2-8° C. After the incubation, plates were washed (3×) and blocked (3% BSA in PBS) for at least one hour at room temperature.
After removal of the blocking buffer and washing (3×), the secondary antibodies, either rabbit anti-llama biotinylated antibody or his-probe (H-3) biotin labeled antibody at was then added at a 1:5,000 dilution to each well and incubated with shaking for at least one hour at room temperature. Only the rabbit anti-llama biotinylated antibody was used in Experiment 2. Both antibodies were run in parallel in Experiment 3.
After the incubation with secondary antibody, the plates were again washed (3×) and HRP at a 1:50,000 dilution was added to each well. Plates were incubated with shaking for at least one hour at room temperature. One last wash (3×) was performed followed by the addition of TMB substrate and plates were incubated at room temperature. For the anti-llama biotinylated antibody stop solution was added to halt the colorimetric reaction at 10 minutes. The his-probe (H-3) biotin labeled antibody was allowed to incubate for 20 minutes prior to stopping. The absorbance at 450 nm was measured as before.

TNF-α = molecular target: T1, TNF-α (Homo sapiens, UniProt P01375); experiment: Inhibition of TNF-α cytotoxicity against U937 by anti-TNF-α VHHs; format: cell-based; settings: constant dose of TNF-α at EC50
T1 construct: purchased Sigma-Aldrich
Experimental: The concentration of TNF-α required to show measurable modulation of activity in the U937 human […] cell line was evaluated by quantitation of the ATP present, which signals the presence of metabolically active cells using Promega's Cell Titer-Glo® Luminescent Cell Viability assay.
The U937 cells were seeded in a clear polystyrene 96-well microculture plate (Corning® Costar® 96-well flat bottom plate, Cat. #3997) in a total volume of 90 μL/well. After 24 hours of incubation in a humidified incubator at 37° C. with 5% CO2 and 95% air, 5 μL of 20×, serially diluted TNF-α in growth medium was added to each well in duplicate (10 pt dose response, highest concentration 20 ng/mL). Additionally, 5 μL of 20×, diluted staurosporine in growth medium was added to each well in duplicate (concentration 1 nM).
After 24 hours of culture in the presence of test agents, the concentration of compound required to show measurable modulation of TNF-α activity in the U937 cell line as evaluated by quantitation of the ATP present. Percent cell growth was calculated relative to untreated control wells. All tests were performed in duplicate at each concentration level.
The EC50 value for the test agents was estimated using Prism 6.05 by curve-fitting the data using the following four parameter-logistic equation: […]

STAT3 = STAT3 reporter GloResponse SIE-luc2P/HEK293 assay, IL-6 induction; format: cell-based;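 note: SIE-luc2P/HEK293 reporter cells stimulated with IL-6 at 40 ng/mL (EC80) after pretreatment, luciferase luminescence (RLU) read the following day, triplicate wells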
SIE-luc2P/HEK293 cells = experiment: BCA protein concentration of reporter cells; format: cell-based
[2] = molecular target: T2, active human TNF-α full length protein (Homo sapiens, UniProt P01375); experiment: TNF-α binding ELISA; settings: for detection in coated versus non-coated wells: 0.5 μg/mL coating antigen, sdAb at 1 μg/mL; for detection in TNF-α ELISA: Experiment 1, 1 μg/mL sdAb; for OD450 Values: Non-Coated wells (non-specific binding), sdAb 1 μg/mL
T2 construct: active human TNF-α full length protein; purchased Abcam
Experimental: In this Example, the binding of anti-TNF-α sdAbs to active human TNF-α full length protein was assessed using an enzyme linked immunosorbent assay (ELISA) format. Additionally, the feasibility of utilizing a secondary antibody targeted to the his tag portion of the sdAbs was assessed.
The test articles for this study were anti-TNF-α VHH62 (SEQ ID NO:47) sdAb, TNF-α VHH66 (SEQ ID NO:45) sdAb, and anti-TNF-α VHH69 (SEQ ID NO:46) sdAb (Experiment 1).
For the assays to assess the binding of the sdAbs to TNF-α protein (Experiment 1, 4 and 5), a standard sandwich ELISA format was utilized. […] Plates were incubated overnight at 2-8° C. After the incubation, plates were washed (3×) and blocked (3% Bovine Serum Albumin (BSA) in Phosphate Buffered Saline (PBS)) for at least one hour at room temperature.
After removal of the blocking buffer and washing (3×), samples were added to the appropriate wells of the ELISA plates and incubated at room temperature with shaking (150 rpm) for at least one hour. The secondary antibody (rabbit anti-llama biotinylated antibody at either a1:5,000 or 10,000 dilution) was then added to each well and incubated with shaking for at least one hour at room temperature.
After the incubation with secondary antibody, the plates were again washed (3×) and horseradish peroxidase (HRP) at either a 1:25,000 or 1:50,000 dilution was added to each well. Plates were incubated with shaking for at least one hour at room temperature. A final wash (3×) was performed followed by the addition of TMB (Tetramethylbenzidine) substrate. After a 20 to 25 minute incubation at room temperature, stop solution was added to halt the colorimetric reaction. The absorbance at 450 nm was measured on a VersaMax instrument utilizing SoftMax Pro GxP version 5.4 software from Molecular Devices (Sunnyvale, Calif.).
The final experiment performed was to confirm that the results from the ELISA testing were due to binding to the TNF-α protein and not non-specific binding of the sdAb. For this determination, a comparison was made between wells coated with 0.5 μg/mL of coating antigen and non-coated wells. […] This experiment confirms that the detection seen with the previous experiments was due to the specific binding of the VHH to the coating antigen and not due to non-specific binding.

[3] = Rabbit anti-Llama Secondary Antibody
[4] = 24 Hour Treatment Prior to IL6 Induction, higher conc.: VHH13 55.8 μg/mL, VHH14 84.3 μg/mL, BB1608 4.16 μM, VHH69 50.5 μg/mL
[5] = 24 Hour Treatment Prior to IL6 Induction, lower conc.: VHH13, VHH14, VHH69 10 μg/mL, BB1608 2 μM
[6] = 48 Hour Treatment Prior to IL6 Induction, higher conc.: VHH13 55.8 μg/mL, VHH14 84.3 μg/mL, BB1608 4.16 μM, VHH69 50.5 μg/mL
[7] = 48 Hour Treatment Prior to IL6 Induction, lower conc.: VHH13, VHH14, VHH69 10 μg/mL, BB1608 2 μM

T2 sequence (P01375 77-233 limits assumed): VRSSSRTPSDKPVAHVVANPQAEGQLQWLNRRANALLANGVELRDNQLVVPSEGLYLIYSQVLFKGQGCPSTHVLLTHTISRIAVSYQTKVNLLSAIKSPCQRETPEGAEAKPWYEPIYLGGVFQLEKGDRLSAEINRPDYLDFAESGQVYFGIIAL
T1 sequence (P01375 77-233 limits assumed): as above

B1: anti-TNF-α VHH69: anti-TNF-α sdAb, SEQ ID NO:46 (protein)
VHH: EVQLVESGGGSVLAGGSLRLSCVASGFTSRYNYMAWFRQAPGKEREGVATIGTASGSADYYGSVKDRFTISQDNAKNTVYLQMNSLKPEDTAMYYCAARTYGTISLTPSDYRYWGQGTLVTVSS
modifications: Camelid
[1]; His-probe (H-3)
  OD450 Values: 0.153
[1]; [3]
  OD450 Values: 0.443
TNF-α
  inhibition of TNF-α killing of U937: inhibit killing of U937 by TNF-α
STAT3; [4]
  Average RLU: 198596 RLU
  Average RLU with Media Blank: 198571 RLU
  Fold-Induction RLU/RLU of −IL6: 434
  Luminescence (replicate wells): 203139 RLU and 194320 RLU and 198330 RLU
STAT3; [5]
  Average RLU: 169752 RLU
  Average RLU with Media Blank: 169726 RLU
  Fold-Induction RLU/RLU of −IL6: 371
  Luminescence (replicate wells): 159115 RLU and 184364 RLU and 165776 RLU
STAT3; 24 and 48 hours treatment, VHH13 and VHH69 at highest concentration, VHH14 at both concentrations
  effect on IL-6 induction of the STAT3 reporter: enhancement of the IL-6 induction
STAT3; [6]
  Average RLU: 225726 RLU
  Average RLU with Media Blank: 225694 RLU
  Fold-Induction RLU/RLU of −IL6: 452
  Luminescence (replicate wells): 219104 RLU and 237816 RLU and 220259 RLU
STAT3; [7]
  Average RLU: 172988 RLU
  Average RLU with Media Blank: 172955 RLU
  Fold-Induction RLU/RLU of −IL6: 347
  Luminescence (replicate wells): 155927 RLU and 191241 RLU and 171796 RLU
SIE-luc2P/HEK293 cells; [4]
  Protein concentration: 213
SIE-luc2P/HEK293 cells; [5]
  Protein concentration: 237
SIE-luc2P/HEK293 cells; [7]
  Protein concentration: 222
[2]
  detection in coated versus non-coated wells: detected in coated wells but not in non-coated wells
  detection in TNF-α ELISA: little to no detection
  OD450 Values: 0.007

B2: anti-TNF-α VHH62: anti-TNF-α sdAb, SEQ ID NO:47 (protein)
VHH: QVQLVESGGGPVQAGETLRLSCTASGFTFAEADMGWYRQAPGHECELVSTITTEGITSEASSYYADSVRGRFTISRDNAKNMVYLQMNSLKPEDTAVYYCAPDPYAYSTYSDYCSWAQGTQGTLVTVSS
modifications: Camelid
[1]; His-probe (H-3)
  OD450 Values: 0.196
[1]; [3]
  OD450 Values: 2.341
TNF-α
  inhibition of TNF-α killing of U937: inhibit killing of U937 by TNF-α
[2]
  detection in coated versus non-coated wells: not detected in either coated or non-coated wells
  detection in TNF-α ELISA: little to no detection
  OD450 Values: −0.001
[2]; Experiment 4, original and new receipt, dilutions starting at 1 μg/mL
  OD450: < 0.2 OD450
